Test results as given in patent EP4631974A1.
Like-named read-outs stand apart in the source and are kept apart here.

Columns and labels:
[1] = target: RSV A2 pre-F protein (respiratory syncytial virus (RSV) A2) (UniProt P03420); assay: BLI (Octet R8), RSV A2 pre-F captured on HIS1K sensor, antibody in solution
[2] = target: RSV A2 pre-F protein (respiratory syncytial virus (RSV) A2) (UniProt P03420); assay: as above; remark: listed apart in the source
[3] = target: RSV A2 pre-F protein (respiratory syncytial virus (RSV) A2) (UniProt P03420); assay: ELISA, plate-coated RSV A2 pre-F, anti-human IgG Fc-HRP detection
[4] = target: RSV A2 pre-F protein (respiratory syncytial virus (RSV) A2) (UniProt P03420); assay: ELISA, plate-coated RSV A2 pre-F, anti-human IgG Fc-HRP detection (2-fold dilutions from 1 ug/mL)

Substance: MEDI8897 (antibody)
- Kd [1]: 0.122 nM
- Kd [2]: 0.379 nM
- EC50 [3]: 0.0313 µg/mL
- EC50 [4]: 0.0146 µg/mL
